{"source": "patent US9217013B2", "about": "“Treatment of amyloidoses using myelin basic protein and fragments thereof” (The Research Foundation for the State University of New York, priority 2008, dated 2015)", "key": {"Aβ40WT": {"molecular_target": "Aβ40WT (Homo sapiens, UniProt P05067)", "experiment": "Affinity chromatography of human brain homogenate on Aβ40WT column", "type": "binding", "method": "For some embodiments of the invention, it may be advantageous to work with purified isolates of mutant and wild-type forms of Aβ. The affinity chromatography method used in the development of embodiments of the instant invention to obtain such isolates is exemplary: To prepare affinity resins, biotinylated wild-type Aβ40 peptide (Aβ40WT) and Aβ40DI were each redissolved in 20 mM NaHCO3 buffer (pH 8.5) and applied to ImmunoPure immobilized streptavidin beads (Pierce) following the manufacturer's instructions. Immobilized ligands were cross-linked with 2 mM bis(sulfosuccinimidyl) suberate (Pierce) for 30 min with rocking at room temperature in 20 mM NaHCO3 (pH 8.5). Crosslinking reactions were stopped by the addition of 1 M Tris-HCl (pH 7.4) to a final concentration of 20 mM. Homogenates of normal human brain frontal cortex (which may obtained as biopsies) were prepared in Tris-buffered saline (50 mM Tris-HCl and 200 mM NaCl (pH 7.4)) containing complete protease inhibitor cocktail (Roche). Homogenates were centrifuged at 12,000×g for 30 min, and supernatants were loaded onto Tris-buffered saline-equilibrated affinity columns (0.8×4 cm) under gravity flow. […] Fractions were analyzed by SDS-PAGE on 10-20% Tris/glycine gradient gels. […]"}, "Aβ40DI": {"molecular_target": "Aβ40DI (Homo sapiens, UniProt P05067, D694N/E693Q)", "experiment": "Thioflavin T fluorescence assay of Aβ40DI fibril formation", "type": "biochemical", "details": "12.5 μM Aβ40DI, 1.56 μM protein, PBS, 37° C.", "method": "FIG. 16 Thioflavin T analysis of inhibition of CAA mutant Aβ fibril formation by MBP. Aβ40DI at a concentration of 12.5 μM in PBS in the absence (□) or presence of 1.56 μM MBP(□) or bovine a-lactalbumin (Lalb; □) as a control. At specific time points, aliquots were collected from each sample and analyzed by thioflavin T binding and fluorescence to determine fibrillar assembly. Data represent the means±S.D. of triplicate samples. A.U., arbitrary units.\nThe Aβ B binding properties of the exemplary fragments of MBP described herein were determined in a thioflavin T fluorescence assay as follows: Lyophilized Aβ peptides were first resuspended with Me2SO to 2.5 mM, diluted to 12.5 μM in PBS, and then incubated at 37° C. with rocking either alone or with 1.56 μM MBP or bovine α-lactalbumin. Control samples containing 0.5% Me2SO and 1.56 μM MBP or lactalbumin in PBS were also included. At each time point, 100 μl samples of each reaction were placed in a 96-well microplate in triplicate, and 5 μl of 100 µM thioflavin T was added. The plate was mixed and incubated at 22° C. in the dark for 10 min. Fluorescence was measured at 490 nm with an excitation wavelength of 446 nm in a SpectraMax spectrofluorometer (Molecular Devices, Sunnyvale, Calif.) using SoftMax Pro control software. It is apparent that the method enables persons of skill in the art to determine the binding properties of MBP, variants thereof, and fragments thereof for any Aβ-peptide, including mutants thereof."}, "[1]": {"molecular_target": "Dutch/Iowa CAA mutant Aβ40 (Aβ40DI) (Homo sapiens, UniProt P05067, D694N/E693Q)", "experiment": "Surface plasmon resonance binding to immobilized Dutch/Iowa Aβ40", "method": "All runs were performed on a Biacore 2000 instrument using 10 mM HEPES (pH 7.4), 150 mM NaCl, 3 mM EDTA, and 0.005% (v/v) Tween 20 as running buffer and diluent. Streptavidiri was conjugated to the surface of three flow cells of a CM5 chip at 10 μl/min using amine coupling chemistry to a final average response level of 1890.2 response units. N-terminally biotinylated Aβ peptides were resuspended in Me2SO to 2.5 mM and serially diluted to 13 nM immediately before application. Biotinylated Aβ40WT and Aβ40DI were bound to individual flow cells at 10 μl/min to achieve an average relative response level of 157.1 response units, leaving flow cell 1 as reference. […] The resultant Rmax of these surfaces was ˜700 response units with MBP as analyte. Purified MBP was passed over all four flow cells at 5, 10, 25, 50, and 100 nM at a flow rate of 30 μl/min for kinetic measurements. […] Surfaces were regenerated with 0.2 M glycine (pH 2.0) and 150 mM NaCl between runs. The resulting sensorgrams were analyzed by BIAanalysis software. Triplicate concentration series were used for each surface.\nUsing recombinant methodology to express and purify regions of the 18.5 kDa human MBP protein and test their abilities to bind Aβ and inhibit fibrillogenesis, cDNAs were prepared for the following regions of MBP shown in FIG. 3. The cDNAs for MBP fragments were cloned into pTYB11 plasmids containing an ampr gene and transformed into competent E. coli BL21 DE3 cells. Expression of cDNAs in this vector results in a fusion protein containing a chitin binding domain (CBD) as well as a self-cleavable intein protein from S. cerevisiae. CBD-Intein-MBP fusion proteins were captured on chitin beads from the resulting cell lysates. MBP protein fragments were eluted by inducing the cleavage between the C-terminus of the intein and the N-terminus of MBP by exposure to dithiothreitol. […] MBP was further purified by cation exchange chromatography on CM52 resin, resulting in a >95% pure protein preparations. Each of the four MBP fragments were tested for binding to Dutch/Iowa Aβ40 and wild-type Aβ42 by surface plasmon resonance (FIG. 4)."}}, "note": "Entries after “also recorded” stand apart in the source; their conditions may differ."}
{"molecule": "myelin basic protein (protein, myelin basic protein, major form about 18.5 Kd (170 residues); purified protein) ASQKRPSQRHGSKYLATASTMDHARHGFLPRHRDTGILDSIGRFFGGDRGAPKRGSGKDSHHPARTAHYGSLPQKSHGRTQDENPVVHFFKNIVTPRTPPPSQGKGRGLSLSRFSWGAEGQRPGFGYGGRASDYKSAHKGFKGVDAQGTLSKIFKLGGRDSRSGSPMARR", "values": [{"measurement": "capture on Aβ40WT affinity column", "setting": "Aβ40WT", "result": "not captured"}, {"measurement": "inhibition of Aβ40DI fibril assembly (thioflavin T)", "setting": "Aβ40DI", "result": "completely inhibits; also recorded: inhibit"}, {"measurement": "binding to Dutch/Iowa CAA mutant Aβ relative to wild-type Aβ", "setting": "[1]; SPR", "result": "bound more tightly"}, {"measurement": "Kd", "setting": "[1]; surface plasmon resonance", "result": 16.9, "unit": "nM"}]}
